Substitutions are numbered along the chain they refer to.

Sequences and labels used below:
B1: G08 antibody (antibody, V domains shown)
VH: QIQLQQSGPELVKPGASVKISCKASGDTFTDYYINWVKQKPGQGLEWIGWIYTGSGNTKYNEKFKGKTTLTVDTSSSTAYMQLNSLTSEDTAVYFCARYNPLITAVVPDYWGQGTTLTVSS
VL: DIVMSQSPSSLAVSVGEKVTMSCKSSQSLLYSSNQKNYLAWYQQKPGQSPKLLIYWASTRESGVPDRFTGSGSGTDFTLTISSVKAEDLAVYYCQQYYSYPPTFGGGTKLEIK
notes: Mouse variable domains from a Fab phage library of immunized mice; also called G08 clone; mAb G08
B2: H06 antibody (antibody, V domains shown)
VH: QIQLQQSGPELVKPGASVKISCKASGYTFTDYYINWVKQKPGQGPEWIGWIYPGSANTKYSEKVKGKATLTVDTSSTTAYMQLSSLTSDDTAVYFCTRNDPLITAVVPDYWGQGTTLTVSS
VL: DIVMSQSPSSLAVSVGEKVTMSCRSSQSRLYSSNQKNYLAWYQQKPGQSPKLLIYWASTRESGVPDRFTGSGSGTDFTLTISSVKAEDLAVYYCQQYYNYPPTFGGGTKLEIK
notes: Mouse variable domains from a Fab phage library of immunized mice; also called H06 clone; mAb H06
B3: B5711 (antibody, V domains shown)
VH: B1 VH
VL: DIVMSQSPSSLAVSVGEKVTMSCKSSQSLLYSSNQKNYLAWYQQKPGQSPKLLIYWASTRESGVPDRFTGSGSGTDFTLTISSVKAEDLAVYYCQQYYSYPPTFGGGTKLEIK
notes: Expressed in 293F cells, purified by protein G
B4: B5716 (antibody, V domains shown)
VH: QIQLVQSGAEVKKPGASVKVSCKASGYTFTDYYINWVRQAPGQGLEWMGWIYPGSANTKYSEKVKGRVTMTVDTSITTAYMELSRLRSDDTAVYYCTRNDPLITAVVPDYWGQGTTVTVSS
VL: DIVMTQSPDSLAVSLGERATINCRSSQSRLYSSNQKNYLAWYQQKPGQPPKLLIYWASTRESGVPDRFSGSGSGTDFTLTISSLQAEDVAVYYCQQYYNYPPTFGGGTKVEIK
notes: Humanized
B5: B5714 (antibody, V domains shown)
VH: B2 VH
VL: B2 VL
B6: B5712 (antibody, V domains shown)
VH: QVQLVQSGAEVKKPGASVKVSCKASGDTFTDYYINWVRQAPGQGLEWMGWIYTGSGNTKYNEKFKGRVTMTRDTSISTAYMELSRLRSDDTAVYYCARYNPLITAVVPDYWGQGTTVTVSS
VL: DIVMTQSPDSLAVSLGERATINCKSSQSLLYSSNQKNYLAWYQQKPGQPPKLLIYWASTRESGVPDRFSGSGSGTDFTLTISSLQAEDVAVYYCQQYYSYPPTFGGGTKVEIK
notes: Humanized; also called HSP206A-CDRG
B7: B5715 (antibody, V domains shown)
VH: B4 VH with I2V, V72R, T77S, T97A
VL: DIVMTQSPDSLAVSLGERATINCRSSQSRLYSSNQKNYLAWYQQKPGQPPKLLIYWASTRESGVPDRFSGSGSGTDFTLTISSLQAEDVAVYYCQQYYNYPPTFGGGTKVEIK
notes: Humanized; also called HSP206B-CDRG
B8: B5713 (antibody, V domains shown)
VH: B6 VH with V2I, R72V
VL: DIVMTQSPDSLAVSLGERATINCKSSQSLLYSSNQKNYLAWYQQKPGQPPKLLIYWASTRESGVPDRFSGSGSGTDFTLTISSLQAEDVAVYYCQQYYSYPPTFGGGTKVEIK
notes: Humanized

T3 sequence (Q08722 19-139 limits assumed): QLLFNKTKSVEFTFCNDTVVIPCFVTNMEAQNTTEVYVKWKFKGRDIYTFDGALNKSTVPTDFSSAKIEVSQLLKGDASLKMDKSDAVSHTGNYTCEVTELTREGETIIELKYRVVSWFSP
T1 sequence (Q08722 19-139): as the sequence (Q08722 19-139 limits assumed) above

The first experiment addresses T1, Tag2-CD47 (UniProt Q08722 19-139).
T1 construct: Tagged reagent of the HTRF assay; also called CD47 (HTRF assay)
Description: HTRF blocking assay, ratio 665 nm/615 nm; blocked ligand: Tag1-SIRP-α binding to Tag2-CD47. From the text:
(§1) To further evaluate the functions of the mouse anti-huCD47 mAbs on blocking SIRP-α interaction, the HTRF assay was employed. The interaction between Tag1-SIRP-α and Tag2-CD47 was detected by using anti-Tag1-Terbium (HTRF donor) and anti-Tag2-XL665 (HTRF acceptor). When the donor and acceptor antibodies were brought into close proximity due to SIRP-α and CD47 binding, excitation of the donor antibody triggered fluorescent resonance energy transfer (FRET) towards the acceptor antibody, which in turn emits specifically at 665 nm. This specific signal is directly proportional to the extent of CD47/SIRP-α interaction. Thus, a molecule blocking CD47/SIRP-α interaction would cause a reduction in HTRF signal.
G08 and H06 antibodies were evaluated for their activity to blocking the interaction of CD47 and SIRP-α.
Turning to B1, the IC50 came out at 0.27 nM.

Consider B2, for which the IC50 was 0.21 nM.

The next experiment addresses T2, cyno CD47-His protein (cynomolgus, UniProt A0A2K5X523 19-139).
T2 construct: also called cynomolgus CD47; not shown: His tag
Description: ELISA on cyno CD47-His protein, OD 450nm [Cont'd) B].
Molecule B3 displayed an EC50 of 7.95 ng/mL.

In turn, B4 registered an EC50 of 9.79 ng/mL.

The molecule B5 yielded an EC50 of 8.45 ng/mL.

With B6, the EC50 is 10.2 ng/mL.

In turn, B7 returned an EC50 of 9.23 ng/mL.

B8 yielded an EC50 of 9.5 ng/mL.

The next experiment concerns the target T3, human CD47-His protein (human, UniProt Q08722 19-139).
T3 construct: Recombinant human CD47 with His tag; also called human CD47-his tag protein; CD47 antigen; not shown: His tag
Description: SPR (Biacore T200) full kinetics, antibody captured on protein A chip, serial dilution of human CD47-his injected. How it is done: The binding of the humanized antibodies to recombinant CD47 protein (human CD47-his tag) was tested by BIACORE™ using a capture method. B5712 and B5715 mAbs were captured using protein A chip. A serial dilution of human CD47-his tag protein was injected over captured antibody for 120s at a flow rate of […]. The antigen was allowed to dissociate for 600s. All the experiments were carried out on a Biacore T200.
B6 came in with a dissociation constant (Kd) of 0.847 nM, a dissociation rate constant (koff) of 0.00128 s⁻¹ and an association rate constant (kon) of 1.51e+06 M⁻¹ s⁻¹.

For the molecule B7, the Kd is 0.56 nM, the koff is 0.000287 s⁻¹ and the kon was determined as 513000 M⁻¹ s⁻¹.

In another experiment the target is T3, human CD47-His protein. Description: SPR (Biacore) affinity ranking, antibody captured on protein A chip, 5 nM human CD47-his injected; affinity ranking, single 5 nM injection of human CD47-his, 130s dissociation. On the procedure: (§2) To explore the binding kinetics of the humanized antibody, this example performed the affinity ranking using biacore. B5711, B5712, B5713, B5714, B5715 and B5716 mAbs were captured using protein A chip. 5 nM of human CD47-his tag protein was injected over captured antibodies for 120s at a flow rate of 30 μL/min. The antigen was allowed to dissociate for 130s.
With B3, the kon is 4.67e+06 M⁻¹ s⁻¹.

The next experiment concerns the target T3, human CD47-His protein. Description: ELISA, purified antibody titrated on CD47-His protein, OD 450nm.
B1 showed an EC50 of 5.93 ng/mL.

On to B2, for which the response was half-maximal at 5.39 ng/mL (EC50).

The next experiment has as its target T3, human CD47-His protein. As to the kind of experiment: ELISA on human CD47-His protein, OD 450nm.
The molecule B3 gave an EC50 of 4.96 ng/mL.

For the molecule B4, a half-maximal response (EC50) required 11.5 ng/mL.

The molecule B5 gave an EC50 of 6.49 ng/mL.

As for B6, it took 5.35 ng/mL to reach a half-maximal effect (EC50).

Consider B7, for which the half-maximal effective concentration (EC50) is 7.09 ng/mL.

B8 returned an EC50 of 7.6 ng/mL.

For a further experiment, the target named is T1, Tag2-CD47. As to the kind of experiment: HTRF blocking assay, ratio 665 nm/615 nm; blocked ligand: Tag1-SIRP-α binding to Tag2-CD47. This is another data set of the same source.
Text: as §1, with “To” for “To further”, “activities” for “functions”, “humanized” for “the mouse”, “triggers” for “triggered”, “emitted” for “emits”
Anti-CD47 antibodies B5711, B5712, B5713, B5714, B5715, and B5716 were evaluated on their activities in blocking the interaction of CD47 and SIRP-α.
Regarding B3, the IC50 came to 0.17 nM.

For the molecule B4, the IC50 was found to be 0.138 nM.

As to B5, the IC50 is 0.14 nM.

As to B6, the IC50 is 0.16 nM.

Regarding B7, the IC50 came out at 0.16 nM.

Turning to B8, the IC50 turned out to be 0.21 nM.

The target in the next experiment is T3, human CD47-His protein. As to the kind of experiment: SPR (Biacore) affinity ranking, antibody captured on protein A chip, 5 nM human CD47-his injected. On the procedure:
as §2
Take B3: binding was put at a Kd of 0.819 nM and the koff worked out at 0.00383 s⁻¹.

On to B4, for which the Kd turned out to be 0.547 nM, the koff was determined as 0.00452 s⁻¹ and the kon turned out to be 8.26e+06 M⁻¹ s⁻¹.

In the case of B5, the Kd was determined as 1.54 nM, the koff was 0.00291 s⁻¹ and the kon is 1.89e+06 M⁻¹ s⁻¹.

In turn, B6 registered a Kd of 1.28 nM, a koff of 0.00276 s⁻¹ and an association rate constant (kon) of 2.15e+06 M⁻¹ s⁻¹.

In turn, B7 gave a Kd of 0.979 nM, a koff of 0.00234 s⁻¹ and a kon of 2.39e+06 M⁻¹ s⁻¹.

B8 returned an equilibrium dissociation constant (Kd) of 1 nM, a dissociation rate constant (koff) of 0.00353 s⁻¹ and a kon of 3.53e+06 M⁻¹ s⁻¹.

The record behind these values is patent publication US20220127357A1 (LEPU BIOPHARMA, published 2022).
